Assays:
[1] = Stability of IHOG in amination reaction solution with no microbial cell addition; assay type: physicochemical; details: 300 mM 4R,S-IHOG, pH 8.3, 37° C., no cells
Experimental: Another reason therefor would be instability of IHOG, the material for producing monatin, in a certain pH. In order to test stability of IHOG in the amination reaction of IHOG, the present inventors measured a change of IHOG concentration with time in an amination reaction solution of IHOG with no microbial cell addition. The reaction was performed by shaking a test tube containing 1 ml of reaction solution composed of 100 mM potassium phosphate buffer (pH 8.3), 300 mM 4R,S-IHOG, 600 mM DL-Ala and 1 mM pyridoxal-5′-phosphate at 37° C. for 40 hours. As a result, a residual ratio of 4R,S-IHOG was decreased to 81% after 16 hours, 70% after 24 hours and 57% after 40 hours, respectively. […] It is presumed that this phenomenon is due to a decomposition reaction where IHOG is decomposed into 3-indole-pyruvic acid and pyruvic acid and a cyclization reaction of IHOG, to consume IHOG in the reaction solution before being converted to monatin. That is, the reaction catalyzed by the D-aminotransferase derived from the genus Bacillus or Paenibacillus is not sufficiently fast, and a part of IHOG becomes unavailable for the amination due to the decomposition and the cyclization before the amination. This is thought to be one reason why (2R,4R) monatin can not be efficiently produced.

[2] = PHOG amination reaction with mutated BMDAT-expressing E. coli (Example 10); assay type: biochemical; details: 100 mM 4R,S-PHOG, 16 hours
Experimental: (§1) Using a series of mutated BMDAT-expressing E. coli strains prepared in Example 9, 2R-monatin was produced from 4R,S-IHOG, and 2R-PHG was produced from 4R,S-PHOG. The microbial cells prepared by centrifuging 400 μL of the cultured medium were suspended in a reaction solution having the following composition.
Reaction solution of PHOG: 100 mM Tris-HCl (pH 8.0), 100 mM 4R,S-PHOG, 400 mM D-alanine, 1 mM pyridoxal-5′-phosphate and 0.5% (v/v) toluene
(§2) The suspension was incubated at 30° C. for 16 hours, and then the amount of 2R-monatin and 2R-PHG thus produced were analyzed.

[3] = PHOG amination with washed cells of BMDAT-expressing E. coli (Example 3); assay type: biochemical; details: 50 mM PHOG, 200 mM D-alanine, pH 8.0
Experimental: (§3) E. coli transformants with pUCBMDAT were inoculated to 3 mL of LB medium (1 g/dL of bacto tryptone, 0.5 g/dL of yeast extract and 1 g/dL of NaCl) containing 0.1 mg/mL of ampicillin and 0.1 mM isopropyl-1-thio-β-D-galactopyranoside (IPTG). The medium was then cultured with shaking at 37° C. for 16 hours. Cells were collected from the cultured medium and washed to prepare cells of the BMDAT-expressing E. coli.
The reaction was also performed in a reaction liquid composed of 100 mM Tris-HCl (pH 8.0), 50 mM PHOG, 200 mM D-alanine, 1 mM pyridoxal-5′-phosphate and 0.5% (v/v) toluene. The amount of 2R-PHG thus produced after the incubation was determined. As a result, 17.1 mM of (2R,4S)-PHG and 19.2 mM of (2R,4R)-PHG were produced.

[4] = IHOG amination reaction with mutated BMDAT-expressing E. coli (Example 10); assay type: biochemical; details: 100 mM 4R,S-IHOG, 16 hours
Experimental: as §1
Reaction solution of IHOG: 100 mM Tris-HCl (pH 8.0), 100 mM 4R,S-IHOG, 400 mM D-alanine, 1 mM pyridoxal-5′-phosphate and 0.5% (v/v) toluene
as §2

[5] = Amination reaction of IHOG with mutated BMDAT-expressing E. coli (Example 5); assay type: biochemical; details: 50 mM 4R,S-IHOG, 16 hours
Experimental: (§4) E. coli transformants containing each plasmid with mutated BMDAT gene or pUCBMDAT were inoculated to 3 mL of LB medium (1 g/dL of bacto tryptone, 0.5 g/dL of yeast extract and 1 g/dL of NaCl) containing 0.1 mg/mL of ampicillin and 0.1 mM isopropyl-1-thio-β-D-galactopyranoside (IPTG). The medium was then cultured with shaking at 37° C. for 16 hours. Cells were harvested from the cultured medium and washed Expression of each mutated BMDAT was confirmed with SDS-PAGE. Cells harvested form 250 μL of the cultured broth were resuspended in 500 μL of an SDS-PAGE sample buffer and boiled for 10 minutes for cell lysis and denaturation. 5 to 10 μL of the supernatant obtained by centrifugation (10,000×g, 10 min.) was subjected to SDS-PAGE.
as §1, with “Example 4 as a catalyst,” for “Example 9,”, “cells collected” for “cells prepared”
(§5) Reaction solution of IHOG: 100 mM Tris-HCl (pH 8.0), 50 mM 4R,S-IHOG, 200 mM D-alanine, 1 mM pyridoxal-5′-phosphate and 0.5% (v/v) toluene
(§6) The suspension was incubated at 30° C. for 16 hours, and then the amount of 2R-monatin and 2R-PHG thus produced were determined.

[6] = DAT activity of mutated BMDAT: transamination from D-alanine to α-ketoglutaric acid, coupled lactate dehydrogenase assay; assay type: biochemical, E. coli; details: 10 mM D-alanine, 10 mM α-ketoglutaric acid, pH 8.0, 30° C., cell sonicate supernatant
Experimental: E. coli transformants containing each plasmid with mutated BMDAT gene or pUCBMDAT were inoculated to 3 mL of casamino acid medium (0.5 g/dL of ammonium sulfate, 0.14 g/dL of KH2PO4, 0.23 g/dL of citrate 2Na.3H2O, 0.1 g/dL of MgSO4.7H2O, 2 mg/dl of FeSO4, 2 mg/dl of MnSO4, 2 mg/dL of pyridoxine hydrochloride, 0.1 mg/dL of thiamine, 1 g/dL of casamino acid, 0.3 g/dL of glycerol, pH 7.5) containing 0.1 mg/mL of ampicillin and 0.1 mM IPTG. The medium was then cultured with shaking at 37° C. for 16 hours. Cells were collected from 1 mL of the cultured medium, washed, suspended in 1 mL of 20 mM Tris-HCl (pH 7.6), and ultrasonically disrupted at 4° C. for 30 min. The sonicates were centrifuged at 15,000 rpm for 5 minutes, and the supernatant thereof was used as an enzyme catalyst. For the measurement of the D-aminotransferase activity (hereinbelow referred to as DAT activity), the transamination activity with D-alanine as the amino donor to α-ketoglutaric acid was enzymatically measured by analyzing pyruvic acid produced from D-alanine as the reaction proceeds.
Reaction conditions: 100 mM Tris-HCl (pH 8.0), 0.2 mM NADH, 0.1 mM pyridoxal-5′-phosphate, 5 U/mL lactate dehydrogenase, 10 mM D-alanine, 10 mM α-ketoglutaric acid, 30° C. A reduction of absorbance at 340 nm was measured.

[7] = IHOG amination with washed cells of BMDAT-expressing E. coli (Example 3); assay type: biochemical; details: 50 mM IHOG, 200 mM D-alanine, pH 8.0, 33° C., 16 hours, cells 2% (w/v)
Experimental: as §3
The microbial cells prepared in (1) above were suspended at 2% (w/v) in 1 mL of a reaction liquid composed of 100 mM Tris-HCl (pH 8.0), 50 mM IHOG, 200 mM D-alanine, 1 mM pyridoxal-5′-phosphate and 0.5% (v/v) toluene. The suspension was then incubated with shaking at 33° C. for 16 hours, and the amount of 2R-monatin thus produced was determined. As a result, 16.4 mM of (2R,4S)-monatin and 17.0 mM of (2R,4R)-monatin were produced.

[8] = Amination reaction of PHOG with mutated BMDAT-expressing E. coli (Example 5); assay type: biochemical; details: 50 mM 4R,S-PHOG, 16 hours
Experimental: as §4
as §1, with “Example 4 as a catalyst,” for “Example 9,”, “cells collected” for “cells prepared”
Reaction solution of PHOG: 100 mM Tris-HCl (pH 8.0), 50 mM 4R,S-PHOG, 200 mM D-alanine, 1 mM pyridoxal-5′-phosphate and 0.5% (v/v) toluene
as §6

[9] = IHOG amination with washed cells of BSDAT-expressing E. coli (Example 6); assay type: biochemical; details: 50 mM IHOG, 200 mM D-alanine, pH 7.6, 30° C., 18 hours, cells 5% (w/v)
Experimental: E. coli transformants containing pUCBSDAT were cultivated in the LB medium (1 g/dL of bacto tryptone, 0.5 g/dL of yeast extract and 1 g/dL of NaCl) containing 0.1 mg/mL of ampicillin at 37° C. for 16 hours. Subsequently, 1 mL of thus obtained broth was added to a 500 mL Sakaguchi flask in which contains 50 mL of the LB medium, and main cultivation was performed at 37° C. After 2.5 hours of cultivation, isopropyl-1-thio-β-D-galactopyranoside (IPTG) was added thereto at a final concentration of 1 mM, and the cultivation was performed for additional 4 hours. Cells were harvested from the cultured medium and washed to prepare the cells of BSDAT-expressing E. coli.
The microbial cells prepared in the above (2) were suspended at 5% (w/v) in 1 mL of a reaction liquid composed of 100 mM Tris-HCl (pH 7.6), 50 mM IHOG, 200 mM D-alanine, 1 mM pyridoxal-5′-phosphate and 0.5% (v/v) toluene. One ml of the suspension was then transferred to a 10 mL test tube, and incubated with shaking at 30° C. for 18 hours. After the incubation, the amount of 2R-monatin thus produced was determined. As a result, 13.8 mM (2R,4R)-monatin and 12.7 mM (2R,4S)-monatin were produced from IHOG.

[10] = IHOG amination reaction with mutated BSDAT-expressing E. coli (Example 8); assay type: biochemical; details: 50 mM 4R,S-IHOG, 16 hours
Experimental: E. coli transformants containing each plasmid with mutated BSDAT gene or pUCBSDAT were inoculated to 3 mL of LB medium (1 g/dL of bacto tryptone, 0.5 g/dL of yeast extract and 1 g/dL of NaCl) containing 0.1 mg/mL of ampicillin and 0.1 mM isopropyl-1-thio-β-D-galactopyranoside (IPTG). The medium was then cultured with shaking at 37° C. for 16 hours. Cells were collected from the cultured medium and washed to prepare the BSDAT-expressing E. coli. Expression of each mutated BSDAT was confirmed by SDS-PAGE. The cells harvested from 250 μL of the cultured medium were resuspended in 500 μL of an SDS-PAGE sample buffer and boiled for 10 minutes for cell lysis and denaturation, and 5 to 10 μL of the supernatant obtained by centrifugation (10,000×g, 10 min.) was subjected to SDS-PAGE.
Using a series of mutated BSDAT-expressing E. coli strains prepared in Example 7, 2R-monatin was produced from 4R,S-IHOG. The microbial cells prepared by centrifuging 400 μL of the cultured medium were suspended in the reaction solution having the following composition.
as §5
The suspension was incubated at 30° C. for 16 hours, and then the amount of 2R-monatin thus produced was analyzed.

[11] = 400 mM D-alanine, pH 8.0, 30° C.
[12] = 200 mM D-alanine, pH 8.0, 30° C.

O=C(O)C(=O)CC(O)(Cc1c[nH]c2ccccc12)C(=O)O (racemic) [4R,S-IHOG, 4-(indol-3-ylmethyl)-4-hydroxy-2-oxoglutaric acid]
residual ratio of 4R,S-IHOG ([1]; after 16 hours): 81%
residual ratio of 4R,S-IHOG ([1]; after 24 hours): 70%

B1: pUCBMDAT: wild-type D-aminotransferase derived from Bacillus macerans AJ1617 (SEQ ID NO:2), expressed in E. coli (protein)
chain: MAYSLWNDQIVEEGSIAISPEDRGYQFGDGIYEVIKVYNGNMFTAQEHIDRFYASAEKIRLVIPYTKDVLHKLLHELIEKNNLETGHVYFQITRGANSRNHVFPDASIPAVLTGNVKAGERAYENFEKGVKATFVEDIRWLRCDIKSLNLLGAVLAKQEAAEKGCYEAILHRGDIVTECSSANVYGIKDGKLYTHPANNFILNGITRQVILKCAEEINLPVIEEPMTKADLLTMDEIIVSSVSSEVTPVIDVDGNQIGAGVPGEWTRQLQQSFEAKLPLSMNTK
modifications: Bacillus macerans
2R,4R-PHG [2, 11]: 34.2 mM
2R,4S-PHG [2, 11]: 34.9 mM
4R selectivity ([2]; 30° C.): 49%
(2R,4R)-PHG produced [3]: 19.2 mM
(2R,4S)-PHG produced [3]: 17.1 mM
2R,4R-monatin [4, 11]: 19.1 mM
2R,4S-monatin [4, 11]: 18.3 mM
4R selectivity ([4]; 30° C.): 51%
2R,4R-monatin [5, 12]: 17.0 mM
2R,4S-monatin [5, 12]: 16.4 mM
4R selectivity (ratio of (2R,4R) isomer out of total 2R-monatin) ([5]; 30° C.): 51%
DAT activity [6]: 6.3 U/mg
(2R,4R)-monatin produced [7]: 17.0 mM
(2R,4S)-monatin produced [7]: 16.4 mM
2R,4R-PHG [8, 12]: 19.2 mM
2R,4S-PHG [8, 12]: 17.1 mM
4R selectivity (ratio of (2R,4R) isomer out of total 2R-PHG) ([8]; 30° C.): 53%

B2: PUCBSDAT: wild-type D-transaminase derived from Bacillus sphaericus ATCC 10208 (SEQ ID NO:4), expressed in E. coli (protein, listed as Bacillus sphaericus)
chain: MAYSLWNDQIVEEGSITISPEDRGYQFGDGIYEVIKVYNGHMFTAQEHIDRFYASAEKIRLVIPYTKDVLHKLLHDLIEKNNLNTGHVYFQITRGTTSRNHIFPDASVPAVLTGNVKTGERSIENFEKGVKATLVEDVRWLRCDIKSLNLLGAVLAKQEASEKGCYEAILHRGDIITECSSANVYGIKDGKLYTHPANNYILNGITRQVILKCAAEINLPVIEEPMTKGDLLTMDEIIVSSVSSEVTPVIDVDGQQIGAGVPGEWTRKLQKAFEAKLPISINA
(2R,4R)-monatin produced [9]: 13.8 mM
(2R,4S)-monatin produced [9]: 12.7 mM
2R,4R-monatin [10, 12]: 13.8 mM
2R,4S-monatin [10, 12]: 12.7 mM
4R selectivity ([10]; 30° C.): 52%

From patent US8058034B2, “Mutated D-aminotransferase and method for producing optically active glutamic acid derivatives using the same” (Ajinomoto Co., Inc., priority 2002, dated 2011)
